Measured values from US8198236B2, “Methods and compositions for the treatment of cancer” (Washington University, priority 2007, dated 2012).

How the values were obtained:
LRP5 = LRP5 (Homo sapiens, UniProt O75197); experiment: 125I-DKK1 binding to LRP5; conditions: FIG. 10B
Procedure: In order to investigate the binding of Mesd polypeptide and an Mesd oligopeptide to either LRP5 or LRP6, binding assays were performed using ^125I-Mesd or ^125I-DKK1 (FIG. 10).

[1] = Mesd in serum after a single i.p. dose (Western blot quantification); format: in vivo, mice
Procedure: In experiments shown in FIG. 23, pharmacokinetics of Mesd peptide and Mesd were examined. FIG. 23A: Amount of Mesd in serum following a single dose of protein administration. Mice were dosed at 5, 10, 20 mg/kg of Mesd via i.p. and the serum samples were collected from individual mice at the indicated time points. The levels of Mesd in serum were quantified by comparison to Mesd pure protein with known concentrations in Western blot analysis. Values are the average of triple determinations with S.D. indicated by error bars. […] Samples were obtained by terminal bleed under anesthesia at each of the indicated time points (N=3 animals per time point). Radioactivity was measured using a gamma counter and DPM converted to mass units/mL blood using the specific activity (DPM/mass) of each test substance. Data are plotted as mass U/mL of test substance with standard deviation indicated by error bars.

cytosolic β-catenin = experiment: Cytosolic β-catenin level by western blotting in LRP6-transduced HT1080 cells; format: cell-based, human; conditions: 0.5 to 5 nM Mesd, 2 hours at 37° C.
Procedure: […] After washing in ice-cold PBS, cells were collected and homogenized in a glass Dounce homogenizer in buffer consisting of 100 mM Tris-HCl pH 7.4, 140 mM NaCl, 2 mM DTT, 2 mM PMSF, and 1× Complete™ protease inhibitors (500 μl/well). The homogenate was centrifuged for 10 minutes at 500 g, and the supernatant was further centrifuged at 100,000 g at 4° C. for 90 minutes. The resulting supernatant was designated the cytosolic fraction. The β-catenin levels were then examined by western blotting using β-catenin-specific antibody from Cell Signaling Technology. The immunoreactive proteins were detected using the ECL™ system (Amersham). Films showing immunoreactive bands were scanned with a Kodak Digital Science DC 120 Zoom Digital Camera and band intensities were analyzed with Kodak Digital Science1D Image Analysis Software.
β-catenin is a key molecule in the Wnt/β-catenin signaling pathway. A cytosolic pool of β-catenin interacts with DNA-binding proteins and participates in Wnt signal transduction (Hinck, L., J. Cell Biol. 125: 1327-1340, 1994; Gottardi, C. J., J. Cell Biol. 153: 1049-1060, 2001; Klingelhofer, J., et al., Oncogene 22: 1181-1188, 2003). To determine whether Mesd binding to cell surface LRP6 directly regulates Wnt signaling, we studied the effects of Mesd binding on cytosolic β-catenin levels in HT1080-LRP6 cells. […]

Wnt signaling = experiment: TCF/LEF-luc reporter assay in Wnt-3A-treated HEK293 cells; format: cell-based; conditions: Wnt3A conditioned medium plus 500 nM, 16 hours at 37° C.
Procedure: HEK293 cells were plated into six-well plates. For each well, 0.1 μg of the TOP-FLASHTCF luciferase construct (Upstate Biotechnology) was cotransfected with 0.8 μg Mesd-expressing vector, 0.8 μg Mesd mutant-expressing vector, or empty vector. A β-galactosidase-expressing vector (Promega, Madison, Wis.) was included as an internal control for transfection efficiency. After 48 hours, cells were lysed and both luciferase and β-galactosidase activities were determined with enzyme assay kits (Promega). The luciferase activity was determined with a luminometer using the Dual Luciferase Assay system (Promega). Luciferase activity was normalized to the activity of the β-galactosidase.
In these experiments, transfected cells were treated without Wnt-3A or with Wnt-3A plus the indicated inhibitors (Mesd and/or Dkk1) for 16 hours at 37° C. Wnt signaling was measured by quantifying the luciferase activity using a live cell imaging system.

LRP6 = biological target: T1, LRP6 (Homo sapiens, UniProt O75581); experiment: LRP6-mediated 125I-DKK1 degradation in LRP6-transduced HT1080 cells; format: cell-based; conditions: 500 nM unlabeled, 4 hours at 37° C.
T1 construct: expressed in transfected cells; host or cells: human HT1080 cells, retroviral vector pLNCX2
T1 sequence (O75581 20-1613): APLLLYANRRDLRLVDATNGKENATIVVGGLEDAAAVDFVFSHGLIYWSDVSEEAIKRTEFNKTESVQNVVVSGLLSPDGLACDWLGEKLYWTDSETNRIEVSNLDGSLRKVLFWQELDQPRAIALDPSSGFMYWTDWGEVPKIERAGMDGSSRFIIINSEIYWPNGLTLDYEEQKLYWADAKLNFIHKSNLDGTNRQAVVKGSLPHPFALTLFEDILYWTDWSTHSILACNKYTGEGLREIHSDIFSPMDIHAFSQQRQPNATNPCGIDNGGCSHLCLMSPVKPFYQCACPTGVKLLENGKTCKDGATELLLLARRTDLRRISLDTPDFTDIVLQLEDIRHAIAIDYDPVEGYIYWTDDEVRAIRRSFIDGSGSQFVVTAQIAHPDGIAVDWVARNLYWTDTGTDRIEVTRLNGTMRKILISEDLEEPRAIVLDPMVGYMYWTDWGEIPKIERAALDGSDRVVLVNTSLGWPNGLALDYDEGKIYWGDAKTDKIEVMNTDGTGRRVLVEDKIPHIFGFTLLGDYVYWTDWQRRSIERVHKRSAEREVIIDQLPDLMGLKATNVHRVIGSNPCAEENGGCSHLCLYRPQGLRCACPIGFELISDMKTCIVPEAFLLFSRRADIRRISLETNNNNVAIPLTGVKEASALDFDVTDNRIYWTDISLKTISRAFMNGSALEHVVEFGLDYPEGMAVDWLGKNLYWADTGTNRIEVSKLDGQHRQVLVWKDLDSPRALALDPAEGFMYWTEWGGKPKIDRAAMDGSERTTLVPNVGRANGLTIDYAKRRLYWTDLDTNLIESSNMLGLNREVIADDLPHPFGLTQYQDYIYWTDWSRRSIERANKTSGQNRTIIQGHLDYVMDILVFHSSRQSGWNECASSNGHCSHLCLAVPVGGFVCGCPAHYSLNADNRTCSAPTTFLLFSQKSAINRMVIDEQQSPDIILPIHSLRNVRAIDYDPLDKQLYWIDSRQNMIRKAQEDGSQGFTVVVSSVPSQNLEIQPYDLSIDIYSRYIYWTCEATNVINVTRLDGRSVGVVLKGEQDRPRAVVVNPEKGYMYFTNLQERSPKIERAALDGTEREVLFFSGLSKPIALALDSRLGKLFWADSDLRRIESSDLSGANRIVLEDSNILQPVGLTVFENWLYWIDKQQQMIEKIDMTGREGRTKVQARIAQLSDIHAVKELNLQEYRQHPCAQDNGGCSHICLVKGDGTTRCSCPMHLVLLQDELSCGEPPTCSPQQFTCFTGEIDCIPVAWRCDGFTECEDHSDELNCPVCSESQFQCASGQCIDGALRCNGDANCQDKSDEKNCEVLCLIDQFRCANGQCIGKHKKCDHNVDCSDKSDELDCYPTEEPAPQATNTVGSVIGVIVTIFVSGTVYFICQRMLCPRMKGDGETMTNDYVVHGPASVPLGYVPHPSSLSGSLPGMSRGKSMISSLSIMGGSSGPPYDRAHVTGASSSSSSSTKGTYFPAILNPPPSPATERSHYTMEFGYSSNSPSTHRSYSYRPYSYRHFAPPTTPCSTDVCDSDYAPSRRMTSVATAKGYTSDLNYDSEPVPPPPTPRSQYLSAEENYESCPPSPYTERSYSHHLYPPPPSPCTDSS
Procedure: Ligand degradation was performed using the methods as described in Li, Y., et al., J. Biol. Chem. 275: 17187-17194, 2000. Briefly, 2×10^5 cells were seeded into 12-well dishes 1 day prior to assay. Pre-warmed assay buffer (minimal Eagle's medium containing 0.6% BSA with radioligand, 0.6 ml/well) was added to cell monolayers in the absence or the presence of unlabeled 500 nM RAP or 500 nM Mesd, followed by incubation for 4 hours at 37° C. Thereafter, the medium overlying the cell monolayers was removed and proteins were precipitated by addition of BSA to 10 mg/ml and trichloroacetic acid to 20%. […] After each time point, the plates were quickly placed on ice and the assay buffer was replaced with cold stop/strip solution. ^125I-anti-HA IgG that remained on the cell surface was stripped by incubation of cell monolayers with cold stop/strip solution for a total of 20 minutes (0.75 ml for 10 minutes, twice) and counted. Cell monolayers were then solubilized with low-SDS lysis buffer and counted. […] The fraction of internalized ^125I-anti-HA IgG after each time point was calculated and plotted.
RAP is a receptor antagonist for members of the LDLR family, and is able to inhibit the binding of most known ligands of the LDLR family members. […] Cell-surface-bound Myc-tagged DKK proteins were fixed and detected by immunofluorescence staining with anti-Myc antibody. […]

LRP5, sequence (O75197 32-1615): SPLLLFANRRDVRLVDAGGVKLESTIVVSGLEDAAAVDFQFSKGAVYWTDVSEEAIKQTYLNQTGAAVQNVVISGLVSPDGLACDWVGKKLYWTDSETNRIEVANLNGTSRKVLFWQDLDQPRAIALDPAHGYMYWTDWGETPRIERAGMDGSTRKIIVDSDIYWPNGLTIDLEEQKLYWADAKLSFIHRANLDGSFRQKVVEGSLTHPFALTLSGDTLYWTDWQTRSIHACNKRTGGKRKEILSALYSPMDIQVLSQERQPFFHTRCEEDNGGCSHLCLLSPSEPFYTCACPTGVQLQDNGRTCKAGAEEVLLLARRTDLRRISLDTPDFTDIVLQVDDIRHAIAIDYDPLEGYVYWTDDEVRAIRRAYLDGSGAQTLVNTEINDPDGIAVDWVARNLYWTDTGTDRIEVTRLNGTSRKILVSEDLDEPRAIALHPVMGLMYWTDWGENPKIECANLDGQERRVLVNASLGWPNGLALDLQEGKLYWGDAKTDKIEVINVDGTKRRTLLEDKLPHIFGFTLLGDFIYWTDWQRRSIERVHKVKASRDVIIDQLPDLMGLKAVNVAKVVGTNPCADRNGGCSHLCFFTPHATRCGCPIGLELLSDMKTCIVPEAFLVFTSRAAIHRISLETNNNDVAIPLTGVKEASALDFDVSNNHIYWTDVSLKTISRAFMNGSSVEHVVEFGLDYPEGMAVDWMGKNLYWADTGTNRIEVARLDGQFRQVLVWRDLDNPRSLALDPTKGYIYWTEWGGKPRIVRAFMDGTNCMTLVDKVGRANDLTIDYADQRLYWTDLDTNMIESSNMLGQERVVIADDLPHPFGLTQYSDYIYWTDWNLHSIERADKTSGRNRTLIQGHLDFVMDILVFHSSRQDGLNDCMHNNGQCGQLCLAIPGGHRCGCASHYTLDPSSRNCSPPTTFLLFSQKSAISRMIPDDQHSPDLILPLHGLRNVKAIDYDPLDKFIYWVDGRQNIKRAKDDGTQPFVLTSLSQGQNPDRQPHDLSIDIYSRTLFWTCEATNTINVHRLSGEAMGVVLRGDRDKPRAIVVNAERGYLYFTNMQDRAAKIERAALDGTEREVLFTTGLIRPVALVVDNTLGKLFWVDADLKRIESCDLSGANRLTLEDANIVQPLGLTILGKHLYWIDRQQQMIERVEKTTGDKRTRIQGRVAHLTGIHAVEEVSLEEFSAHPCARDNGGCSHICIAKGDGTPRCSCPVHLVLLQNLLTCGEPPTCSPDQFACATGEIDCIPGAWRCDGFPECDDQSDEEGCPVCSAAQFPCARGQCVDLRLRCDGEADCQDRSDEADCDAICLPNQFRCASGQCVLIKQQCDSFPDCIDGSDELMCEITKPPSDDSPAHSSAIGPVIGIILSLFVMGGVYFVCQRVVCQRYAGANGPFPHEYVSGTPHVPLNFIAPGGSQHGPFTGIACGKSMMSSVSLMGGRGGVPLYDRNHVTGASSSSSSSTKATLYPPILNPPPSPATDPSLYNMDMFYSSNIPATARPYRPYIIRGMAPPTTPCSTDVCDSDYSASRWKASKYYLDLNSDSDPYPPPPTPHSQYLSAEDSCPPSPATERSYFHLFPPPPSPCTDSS

B1: Mesd: Recombinant full-length mouse Mesd expressed in E. coli, N-terminal polyhistidine tail, lacking the signal peptide (protein)
chain: ADTPGEATPPPRKKKDIRDYNDADMARLLEQWEKDDDIEEGDLPEHKRPSAPIDFSKLDPGKPESILKMTKKGKTLMMFVTVSGNPTEKETEEITSLWQGSLFNANYDVQRFIVGSDRAIFMLRDGSYAWEIKDFLVSQDRCAEVTLEGQMYPGKGGGSKEKNKTKPEKAKKKEGDRKPRASKEDNRAGSRREDL
modifications: left off: small tags and cut ends
notes: Recombinant full-length mouse Mesd expressed in E. coli, N-terminal polyhistidine tail, lacking the signal peptide
LRP5
  Reduction in binding of 125I-DKK1 to LRP5: small but significant reduction
[1]
  Absorption after dosing: rapidly absorbed
Cytosolic β-catenin
  Change in cytosolic β-catenin levels: no significant change
Wnt signaling
  Inhibition of Wnt signaling (luciferase activity): moderately inhibit
LRP6
  Effect on increased 125I-DKK1 degradation of LRP6-expressing HT1080 cells: abolished
